The supplement of paper PMC5998384

Tests used:
[1] = test system: HeLa Kyoto; test: solubility in G1/S (NP-40 vs SDS abundance) (log2 ratio); higher = more soluble; conditions: cell cycle stage: G1/S
[2] = test system: HeLa Kyoto; test: solubility change mitosis vs G1/S (difference of NP-40 vs SDS log2 ratios) (log2 ratio difference); higher = more soluble in mitosis
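For solubility change mitosis vs G1/S (difference of NP-40 vs SDS log2 ratios) in this document: synchronized HeLa Kyoto cells (double thymidine block for G1/S, nocodazole release for mitosis), protein amounts in NP-40 versus SDS lysates quantified by mass spectrometry, three biological replicates.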
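For solubility in G1/S (NP-40 vs SDS abundance) in this document: HeLa Kyoto cells arrested at G1/S by double thymidine block, proteins quantified by TMT10plex mass spectrometry in mild NP-40 versus SDS extracts, three biological replicates.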

## MAGPGSTGGQIGAAALAGGARSKVAPSVDFDHSCSDSVEYLTLNFGPFETVHRWRRLPPCDEFVGARRSKHTVVAYKDAIYVFGGDNGKTMLNDLLRFDVKDCSWCRAFTTGTPPAPRYHHSAVVYGSSMFVFGGYTGDIYSNSNLKNKNDLFEYKFATGQWTEWKIEGRLPVARSAHGATVYSDKLWIFAGYDGNARLNDMWTIGLQDRELTCWEEVAQSGEIPPSCCNFPVAVCRDKMFVFSGQSGAKITNNLFQFEFKDKTWTRIPTEHLLRGSPPPPQRRYGHTMVAFDRHLYVFGGAADNTLPNELHCYDVDFQTWEVVQPSSDSEVGGAEVPERACASEEVPTLTYEERVGFKKSRDVFGLDFGTTSAKQPTQPASELPSGRLFHAAAVISDAMYIFGGTVDNNIRSGEMYRFQFSCYPKCTLHEDYGRLWESRQFCDVEFVLGEKEECVQGHVAIVTARSRWLRRKITQARERLAQKLEQEAAPVPREAPGVAAGGARPPLLHVAIREAEARPFEVLMQFLYTDKIKYPRKGHVEDVLLIMDVYKLALSFQLCRLEQLCRQYIEASVDLQNVLVVCESAARLQLSQLKEHCLNFVVKESHFNQVIMMKEFERLSSPLIVEIVRRKQQPPPRTPLDQPVDIGTSLIQDMKAYLEGAGAEFCDITLLLDGHPRPAHKAILAARSSYFEAMFRSFMPEDGQVNISIGEMVPSRQAFESMLRYIYYGEVNMPPEDSLYLFAAPYYYGFYNNRLQAYCKQNLEMNVTVQNVLQILEAADKTQALDMKRHCLHIIVHQFTKVSKLPTLRSLSQQLLLDIIDSLASHISDKQCAELGADI [LZTR1]
[1]
  solubility in G1/S (log2): -0.115
[2]
  solubility change mitosis (log2): -0.0816

## MEGESSRFEIHTPVSDKKKKKCSIHKERPQKHSHEIFRDSSLVNEQSQITRRKKRKKDFQHLISSPLKKSRICDETANATSTLKKRKKRRYSALEVDEEAGVTVVLVDKENINNTPKHFRKDVDVVCVDMSIEQKLPRKPKTDKFQVLAKSHAHKSEALHSKVREKKNKKHQRKAASWESQRARDTLPQSESHQEESWLSVGPGGEITELPASAHKNKSKKKKKKSSNREYETLAMPEGSQAGREAGTDMQESQPTVGLDDETPQLLGPTHKKKSKKKKKKKSNHQEFEALAMPEGSQVGSEVGADMQESRPAVGLHGETAGIPAPAYKNKSKKKKKKSNHQEFEAVAMPESLESAYPEGSQVGSEVGTVEGSTALKGFKESNSTKKKSKKRKLTSVKRARVSGDDFSVPSKNSESTLFDSVEGDGAMMEEGVKSRPRQKKTQACLASKHVQEAPRLEPANEEHNVETAEDSEIRYLSADSGDADDSDADLGSAVKQLQEFIPNIKDRATSTIKRMYRDDLERFKEFKAQGVAIKFGKFSVKENKQLEKNVEDFLALTGIESADKLLYTDRYPEEKSVITNLKRRYSFRLHIGRNIARPWKLIYYRAKKMFDVNNYKGRYSEGDTEKLKMYHSLLGNDWKTIGEMVARSSLSVALKFSQISSQRNRGAWSKSETRKLIKAVEEVILKKMSPQELKEVDSKLQENPESCLSIVREKLYKGISWVEVEAKVQTRNWMQCKSKWTEILTKRMTNGRRIYYGMNALRAKVSLIERLYEINVEDTNEIDWEDLASAIGDVPPSYVQTKFSRLKAVYVPFWQKKTFPEIIDYLYETTLPLLKEKLEKMMEKKGTKIQTPAAPKQVFPFRDIFYYEDDSEGEDIEKESEGQAPCMAHACNSSTLGGQGRWII [TTF1]
[1]
  solubility in G1/S (log2): -1.02
[2]
  solubility change mitosis (log2): 0.169

## MDPDPQAGVQVGMRVVRGVDWKWGQQDGGEGGVGTVVELGRHGSPSTPDRTVVVQWDQGTRTNYRAGYQGAHDLLLYDNAQIGVRHPNIICDCCKKHGLRGMRWKCRVCLDYDLCTQCYMHNKHELAHAFDRYETAHSRPVTLSPRQGLPRIPLRGIFQGAKVVRGPDWEWGSQDGGEGKPGRVVDIRGWDVETGRSVASVTWADGTTNVYRVGHKGKVDLKCVGEAAGGFYYKDHLPRLGKPAELQRRVSADSQPFQHGDKVKCLLDTDVLREMQEGHGGWNPRMAEFIGQTGTVHRITDRGDVRVQFNHETRWTFHPGALTKHHSFWVGDVVRVIGDLDTVKRLQAGHGEWTDDMAPALGRVGKVVKVFGDGNLRVAVAGQRWTFSPSCLVAYRPEEDANLDVAERARENKSSLSVALDKLRAQKSDPEHPGRLVVEVALGNAARALDLLRRRPEQVDTKNQGRTALQVAAYLGQVELIRLLLQARAGVDLPDDEGNTALHYAALGNQPEATRVLLSAGCRADAINSTQSTALHVAVQRGFLEVVRALCERGCDVNLPDAHSDTPLHSAISAGTGASGIVEVLTEVPNIDVTATNSQGFTLLHHASLKGHALAVRKILARARQLVDAKKEDGFTALHLAALNNHREVAQILIREGRCDVNVRNRKLQSPLHLAVQQAHVGLVPLLVDAGCSVNAEDEEGDTALHVALQRHQLLPLVADGAGGDPGPLQLLSRLQASGLPGSAELTVGAAVACFLALEGADVSYTNHRGRSPLDLAAEGRVLKALQGCAQRFRERQAGGGAAPGPRQTLGTPNTVTNLHVGAAPGPEAAECLVCSELALLVLFSPCQHRTVCEECARRMKKCIRCQVVVSKKLRPDGSEVASAAPAPGPPRQLVEELQSRYRQMEERITCPICIDSHIRLVFQCGHGACAPCGSALSACPICRQPIRDRIQIFV [MIB2]
[1]
  solubility in G1/S (log2): -0.12
[2]
  solubility change mitosis (log2): -0.0211

## MPVQAAQWTEFLSCPICYNEFDENVHKPISLGCSHTVCKTCLNKLHRKACPFDQTAINTDIDVLPVNFALLQLVGAQVPDHQSIKLSNLGENKHYEVAKKCVEDLALYLKPLSGGKGVASLNQSALSRPMQRKLVTLVNCQLVEEEGRVRAMRAARSLGERTVTELILQHQNPQQLSANLWAAVRARGCQFLGPAMQEEALKLVLLALEDGSALSRKVLVLFVVQRLEPRFPQASKTSIGHVVQLLYRASCFKVTKRDEDSSLMQLKEEFRSYEALRREHDAQIVHIAMEAGLRISPEQWSSLLYGDLAHKSHMQSIIDKLQSPESFAKSVQELTIVLQRTGDPANLNRLRPHLELLANIDPNPDAVSPTWEQLENAMVAVKTVVHGLVDFIQNYSRKGHETPQPQPNSKYKTSMCRDLRQQGGCPRGTNCTFAHSQEELEKYRLRNKKINATVRTFPLLNKVGVNNTVTTTAGNVISVIGSTETTGKIVPSTNGISNAENSVSQLISRSTDSTLRALETVKKVGKVGANGQNAAGPSADSVTENKIGSPPKTPVSNVAATSAGPSNVGTELNSVPQKSSPFLTRVPVYPPHSENIQYFQDPRTQIPFEVPQYPQTGYYPPPPTVPAGVAPCVPRFVRSNNVPESSLPPASMPYADHYSTFSPRDRMNSSPYQPPPPQPYGPVPPVPSGMYAPVYDSRRIWRPPMYQRDDIIRSNSLPPMDVMHSSVYQTSLRERYNSLDGYYSVACQPPSEPRTTVPLPREPCGHLKTSCEEQIRRKPDQWAQYHTQKAPLVSSTLPVATQSPTPPSPLFSVDFRADFSESVSGTKFEEDHLSHYSPWSCGTIGSCINAIDSEPKDVIANSNAVLMDLDSGDVKRRVHLFETQRRTKEEDPIIPFSDGPIISKWGAISRSSRTGYHTTDPVQATASQGSATKPISVSDYVPYVNAVDSRWSSYGNEATSSAHYVERDRFIVTDLSGHRKHSSTGDLLSLELQQAKSNSLLLQREANALAMQQKWNSLDEGRHLTLNLLSKEIELRNGELQSDYTEDATDTKPDRDIELELSALDTDEPDGQSEPIEEILDIQLGISSQNDQLLNGMAVENGHPVQQHQKEPPKQKKQSLGEDHVILEEQKTILPVTSCFSQPLPVSISNASCLPITTSVSAGNLILKTHVMSEDKNDFLKPVANGKMVNS [RC3H2]
[1]
  solubility in G1/S (log2): 0.279
[2]
  solubility change mitosis (log2): -0.128

## MGCAPSIHISERLVAEDAPSPAAPPLSSGGPRLPQGQKTAALPRTRGAGLLESELRDGSGKKVAVADVQFGPMRFHQDQLQVLLVFTKEDNQCNGFCRACEKAGFKCTVTKEAQAVLACFLDKHHDIIIIDHRNPRQLDAEALCRSIRSSKLSENTVIVGVVRRVDREELSVMPFISAGFTRRYVENPNIMACYNELLQLEFGEVRSQLKLRACNSVFTALENSEDAIEITSEDRFIQYANPAFETTMGYQSGELIGKELGEVPINEKKADLLDTINSCIRIGKEWQGIYYAKKKNGDNIQQNVKIIPVIGQGGKIRHYVSIIRVCNGNNKAEKISECVQSDTHTDNQTGKHKDRRKGSLDVKAVASRATEVSSQRRHSSMARIHSMTIEAPITKVINIINAAQESSPMPVTEALDRVLEILRTTELYSPQFGAKDDDPHANDLVGGLMSDGLRRLSGNEYVLSTKNTQMVSSNIITPISLDDVPPRIARAMENEEYWDFDIFELEAATHNRPLIYLGLKMFARFGICEFLHCSESTLRSWLQIIEANYHSSNPYHNSTHSADVLHATAYFLSKERIKETLDPIDEVAALIAATIHDVDHPGRTNSFLCNAGSELAILYNDTAVLESHHAALAFQLTTGDDKCNIFKNMERNDYRTLRQGIIDMVLATEMTKHFEHVNKFVNSINKPLATLEENGETDKNQEVINTMLRTPENRTLIKRMLIKCADVSNPCRPLQYCIEWAARISEEYFSQTDEEKQQGLPVVMPVFDRNTCSIPKSQISFIDYFITDMFDAWDAFVDLPDLMQHLDNNFKYWKGLDEMKLRNLRPPPE [PDE8A]
[1]
  solubility in G1/S (log2): -0.192
[2]
  solubility change mitosis (log2): -0.222

## MGEPSREEYKIQSFDAETQQLLKTALKDPGAVDLEKVANVIVDHSLQDCVFSKEAGRMCYAIIQAESKQAGQSVFRRGLLNRLQQEYQAREQLRARSLQGWVCYVTFICNIFDYLRVNNMPMMALVNPVYDCLFRLAQPDSLSKEEEVDCLVLQLHRVGEQLEKMNGQRMDELFVLIRDGFLLPTGLSSLAQLLLLEIIEFRAAGWKTTPAAHKYYYSEVSD [MIF4GD]
[1]
  solubility in G1/S (log2): 0.085
[2]
  solubility change mitosis (log2): 0.238

## MATVLSRALKLPGKKSPDLGEYDPLTQADSDESEDDLVLNLQKNGGVKNGKSPLGEAPEPDSDAEVAEAAKPHLSEVTTEGYPSEPLGGLEQKAASSLVSYVRTSVFLLTLGISMILVLLCAFLIPCPPRDLHSTWSRHLGSQGGGDLSPLELADVNGDGLRDVLLSFVMSRNGSAVGVSRPAANLVCLSGMNGSTLWSSLLPEEARDITCLELMPGSLAETICLVTGTHKMLSAFNATSGKAIWTLNPNYLSNGTLAAPVVVLPDLDEDGVRDLVVLAIGELQPDLCFLLVSGRTGNPVGRPVKYNIVGVGNLIGPQVYITTNGAVYILFGFGNIQAVALRDIFVQAQNRDSSPPSLQIEEPEWEKRRSINLSELIDVYSDGVELLQMVKAPDSNCSNLLITTRQSLVLLRGQNLTPYWALRLQGLRSQPTPGYFTDDQTLDFLLQIQDGVGMKKMMVVDGDSGSIVWSYRAPCHMKETPATSAVTSDQKSVFLFWAEGLSAASPNSDIILGTEPPSLHHLYLLHPAFPSILLDLANTTGTVTASEVGINDLWKDAFYVTRTTGPSSEGHPAALVVSKLSLRWALMEGQMAQLQESTPKIGRGELRRFLSRIKFVEAPYEI [KIAA1467]
[1]
  solubility in G1/S (log2): 0.0831
[2]
  solubility change mitosis (log2): -0.0551
